By EC50 (read off the curve) is commonly meant the concentration at which the effect is half-maximal.

Assay [1] has as its target T1, human NPR1 on CHO-K1 cells (human, UniProt P16066 33-1061).
T1 sequence: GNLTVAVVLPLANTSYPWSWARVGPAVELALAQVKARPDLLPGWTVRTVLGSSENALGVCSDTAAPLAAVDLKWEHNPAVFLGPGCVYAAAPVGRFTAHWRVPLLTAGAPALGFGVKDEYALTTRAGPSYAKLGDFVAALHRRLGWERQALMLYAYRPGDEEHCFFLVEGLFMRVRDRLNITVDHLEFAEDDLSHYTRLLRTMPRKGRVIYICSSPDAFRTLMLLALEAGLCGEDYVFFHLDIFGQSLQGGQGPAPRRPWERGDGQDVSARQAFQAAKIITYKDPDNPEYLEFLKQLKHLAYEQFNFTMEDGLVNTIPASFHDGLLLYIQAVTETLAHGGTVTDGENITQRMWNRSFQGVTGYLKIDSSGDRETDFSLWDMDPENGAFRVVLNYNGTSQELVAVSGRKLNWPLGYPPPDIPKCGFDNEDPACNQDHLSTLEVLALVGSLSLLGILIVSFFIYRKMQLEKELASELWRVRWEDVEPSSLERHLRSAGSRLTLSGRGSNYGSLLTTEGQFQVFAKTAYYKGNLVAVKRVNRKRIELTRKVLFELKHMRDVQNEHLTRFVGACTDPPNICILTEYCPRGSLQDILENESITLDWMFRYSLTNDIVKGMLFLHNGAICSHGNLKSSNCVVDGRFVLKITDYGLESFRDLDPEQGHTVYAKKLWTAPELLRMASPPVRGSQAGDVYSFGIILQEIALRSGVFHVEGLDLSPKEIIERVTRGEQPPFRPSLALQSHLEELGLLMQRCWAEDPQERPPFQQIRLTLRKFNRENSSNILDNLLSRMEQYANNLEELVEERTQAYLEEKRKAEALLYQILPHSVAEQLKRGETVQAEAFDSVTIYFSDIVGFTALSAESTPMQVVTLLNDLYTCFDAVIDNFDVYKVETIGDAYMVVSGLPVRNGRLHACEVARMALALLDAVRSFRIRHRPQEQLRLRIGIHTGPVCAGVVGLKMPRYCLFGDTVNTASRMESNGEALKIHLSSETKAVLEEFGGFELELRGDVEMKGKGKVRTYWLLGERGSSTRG
Put plainly: cell-based or functional assay.

The target of assay [2] is constitutively active human NPR1 mutant (W74R) (human) (UniProt P16066). Put plainly: ELISA, 1 µM IgG.
Assay [3] deals with W74R hNPR1 mutant in the presence of ANP (human) (UniProt P01160). Put plainly: ELISA, 1 µM IgG. A general note: An ELISA detects its analyte on a solid surface through an enzyme-linked reagent.
The next assay has as its target T2, rNPR1-ANP complex (rat).
T2 sequence: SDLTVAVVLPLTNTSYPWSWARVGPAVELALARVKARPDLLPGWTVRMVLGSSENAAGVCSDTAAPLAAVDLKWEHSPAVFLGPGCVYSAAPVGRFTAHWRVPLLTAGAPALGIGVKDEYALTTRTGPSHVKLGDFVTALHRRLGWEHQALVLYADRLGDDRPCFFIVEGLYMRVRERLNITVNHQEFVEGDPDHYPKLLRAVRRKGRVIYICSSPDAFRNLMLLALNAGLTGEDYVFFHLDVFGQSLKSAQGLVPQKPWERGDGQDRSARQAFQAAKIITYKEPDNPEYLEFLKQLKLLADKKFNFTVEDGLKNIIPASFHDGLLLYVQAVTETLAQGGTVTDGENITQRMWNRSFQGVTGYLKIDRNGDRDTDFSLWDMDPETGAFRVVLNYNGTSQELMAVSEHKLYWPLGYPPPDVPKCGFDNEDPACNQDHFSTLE
T2 sequence (peptide): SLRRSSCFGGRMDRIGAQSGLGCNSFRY
Kind of assay: ELISA, 1 µM IgG.

The target of assay [4] is T3, human Natriuretic Peptide Receptor 1 (hNPR1) (human, UniProt P16066 33-473, limits assumed).
T3 construct: pannings used NPR1-hFc; also called NPR1-hFc
T3 sequence: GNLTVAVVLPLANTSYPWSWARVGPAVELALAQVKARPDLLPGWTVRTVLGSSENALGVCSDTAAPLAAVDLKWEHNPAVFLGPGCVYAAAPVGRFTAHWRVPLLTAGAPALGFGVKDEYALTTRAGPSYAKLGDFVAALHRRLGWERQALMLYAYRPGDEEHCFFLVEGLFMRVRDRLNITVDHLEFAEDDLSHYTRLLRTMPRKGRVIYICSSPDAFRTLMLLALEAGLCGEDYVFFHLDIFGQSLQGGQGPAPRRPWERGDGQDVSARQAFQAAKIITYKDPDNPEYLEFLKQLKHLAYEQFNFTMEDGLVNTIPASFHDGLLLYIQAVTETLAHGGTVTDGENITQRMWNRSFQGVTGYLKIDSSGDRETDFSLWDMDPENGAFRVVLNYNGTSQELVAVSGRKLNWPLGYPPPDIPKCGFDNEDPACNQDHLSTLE
Kind of assay: ELISA, IgG titrated on coated antigen, fluorescence [Cont.].

Assay [5] has as its target constitutively active human NPR1 mutant (W74R) (human) (UniProt P16066). The description is as above.
Assay [6] has as its target T4, rNPR1-ANP complex (rat, UniProt P01160 124-151 (human entry), limits assumed).
T4 construct: rNPR1 antigen in the presence of ANP; also called rNPR1 + 100 nM ANP
T4 sequence: T2 sequence
T4 sequence (peptide): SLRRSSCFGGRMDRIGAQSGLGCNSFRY
Put plainly: ELISA, IgG titrated on coated antigen with ANP (250 fold molar excess), fluorescence [Cont.].

The target of assay [7] is T4, rNPR1-ANP complex. Kind of assay: ELISA, 1 µM IgG. Also noted: unit not given here.

B1: YY06 (IgG format) (antibody, V domains shown)
VH: EVQLLESGGGLVQPGGSLRLSCAASGFTFSSYAISWVRQAPGKGLEWVSAISGSGGSTYYAESVKGRFTISRDNSKNTLYLQMNSLRAEDTAVYYCARPYLGDRRSYGFDHWGQGTLVTVSS
VL: QSALTQPASVSGSPGQSITISCTGTSSDVGSYNLVSWYQQHPGKAPKLMIYEGSKRPSGVSNRFSGSKSGNTASLTISGLQAEDEADYYCSSYGFHIVVVVFGGGTKLTVLG
notes: also called YY06_LALA
For the molecule B1, the “cGMP conc [nM] at 1 µM IgG, +0.075 nM ANP” value in assay [1] was found to be 15 nM. Also, the “cGMP conc [nM] at 1 µM IgG, without ANP” value in assay [1] is 12 nM. Further, the ELISA binding at 1 µM IgG came to 83 in assay [2], 86 in assay [3] and 4 in the assay with rNPR1-ANP complex (rat). In addition, the “EC50 (read off the curve)” value in assay [4] was approximately 7 nM; in assay [5] it was 5 nM.

B2: YY07 (IgG format) (antibody, V domains shown)
VH: EVQLVQSGAEVKKPGESLKISCKGSGYSFTSYWISWVRQMPGKGLEWMGIIYPGTSYTRYSPSFQGQVTISADKSISTAYLQWSSLKASDTAMYYCARGSLPGLLGFDHWGQGTLVTVSS
VL: QSVLTQPPSVSGAPGQRVTISCTGSSSNIGAGYDVHWYQQLPGTAPKLLIYGNSNRPNGVPDRFSGSKSGTSASLAITGLQAEDEADYYCQSYDSPTSSSVFGGGTKLTVLG
notes: also called YY07_LALA
On to B2, for which the “cGMP conc [nM] at 1 µM IgG, +0.075 nM ANP” value in assay [1] amounted to 9 nM. In assay [1], the “cGMP conc [nM] at 1 µM IgG, without ANP” value is 4 nM. Further, in the assay with rNPR1-ANP complex [6], the binding result was “no binding (tested: 1000 nM)”. Besides, the ELISA binding at 1 µM IgG in assay [2] is 53; in assay [3], 20; in the assay with rNPR1-ANP complex [7], 3. In assay [5], this molecule yielded an EC50 (read off the curve) of 2 nM.

The values are drawn from patent US20240052042A1 (Novartis, published 2024).
